Assay: flow cytometry of surface TCR, anti-CD3 epsilon UCHT1
Settings: glycan lost; control: JGN transfected with wild-type CD3 gamma

| Substance | expression_or_secretion |
| --- | --- |
| CD3 gamma: N30Q | no change |
| CD3 gamma: N70Q | no change |
